B1: PRKC apoptosis WT1 regulator protein (Homo sapiens), Q96IZ0 (parent)
chain: MATGGYRTSSGLGGSTTDFLEEWKAKREKMRAKQNPPGPAPPGGGSSDAAGKPPAGALGTPAAAAANELNNNLPGGAPAAPAVPGPGGVNCAVGSAMLTRAAPGPRRSEDEPPAASASAAPPPQRDEEEPDGVPEKGKSSGPSARKGKGQIEKRKLREKRRSTGVVNIPAAECLDEYEDDEAGQKERKREDAITQQNTIQNEAVNLLDPGSSYLLQEPPRTVSGRYKSTTSVSEEDVSSRYSRTDRSGFPRYNRDANVSGTLVSSSTLEKKIEDLEKEVVRERQENLRLVRLMQDKEEMIGKLKEEIDLLNRDLDDIEDENEQLKQENKTLLKVVGQLTR
B2: SPRY domain-containing SOCS box protein 2 (Mus musculus), O88838 (parent)
chain: MGQTALARGSSSTPTSQALYSDFSPPEGLEELLSAPPPDLVAQRHHGWNPKDCSENIDVKEGGLCFERRPVAQSTDGVRGKRGYSRGLHAWEISWPLEQRGTHAVVGVATALAPLQADHYAALLGSNSESWGWDIGRGKLYHQSKGLEAPQYPAGPQGEQLVVPERLLVVLDMEEGTLGYSIGGTYLGPAFRGLKGRTLYPSVSAVWGQCQVRIRYMGERRVEEPQSLLHLSRLCVRHALGDTRLGQISTLPLPPAMKRYLLYK
partner: B1 chain
B3: PRKC apoptosis WT1 regulator protein (Homo sapiens), Q96IZ0 (parent)
chain: B1 chain
partner: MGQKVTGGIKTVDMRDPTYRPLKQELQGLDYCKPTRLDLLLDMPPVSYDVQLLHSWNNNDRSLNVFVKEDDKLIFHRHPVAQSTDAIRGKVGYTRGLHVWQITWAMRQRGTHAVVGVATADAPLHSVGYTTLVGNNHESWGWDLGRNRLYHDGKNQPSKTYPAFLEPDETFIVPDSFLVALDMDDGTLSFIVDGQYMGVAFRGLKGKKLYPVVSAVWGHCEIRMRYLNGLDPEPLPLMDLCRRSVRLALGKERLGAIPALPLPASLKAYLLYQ

Variants of: B1
Conditions: with spsb2_mouse Spsb2, O88838

Row | effect of a mutation on the interaction | Variant
1 | increasing interaction | MATGGYRTSSGLGGSTTDFLEEWKAKREKMRAKQNPPGPAPPGGGSSDAAGKPPAGALGTPAAAAANDLNNNLPGGAPAAPAVPGPGGVNCAVGSAMLTRAAPGPRRSEDEPPAASASAAPPPQRDEEEPDGVPEKGKSSGPSARKGKGQIEKRKLREKRRSTGVVNIPAAECLDEYEDDEAGQKERKREDAITQQNTIQNEAVNLLDPGSSYLLQEPPRTVSGRYKSTTSVSEEDVSSRYSRTDRSGFPRYNRDANVSGTLVSSSTLEKKIEDLEKEVVRERQENLRLVRLMQDKEEMIGKLKEEIDLLNRDLDDIEDENEQLKQENKTLLKVVGQLTR [E68D]

Variants of: B1
Conditions: with spsb4_mouse Spsb4, Q8R5B6
spsb4_mouse Spsb4, Q8R5B6, sequence (Q8R5B6 whole entry): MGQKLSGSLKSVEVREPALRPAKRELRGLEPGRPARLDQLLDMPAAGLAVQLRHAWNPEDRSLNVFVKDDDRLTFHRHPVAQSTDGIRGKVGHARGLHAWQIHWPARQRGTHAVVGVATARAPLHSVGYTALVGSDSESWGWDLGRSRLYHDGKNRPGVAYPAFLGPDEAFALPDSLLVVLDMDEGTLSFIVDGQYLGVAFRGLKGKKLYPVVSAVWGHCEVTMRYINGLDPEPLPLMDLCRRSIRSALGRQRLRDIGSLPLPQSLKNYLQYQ

Row | effect of a mutation on the interaction | Variant
2 | increasing interaction | MATGGYRTSSGLGGSTTDFLEEWKAKREKMRAKQNPPGPAPPGGGSSDAAGKPPAGALGTPAAAAANDLNNNLPGGAPAAPAVPGPGGVNCAVGSAMLTRAAPGPRRSEDEPPAASASAAPPPQRDEEEPDGVPEKGKSSGPSARKGKGQIEKRKLREKRRSTGVVNIPAAECLDEYEDDEAGQKERKREDAITQQNTIQNEAVNLLDPGSSYLLQEPPRTVSGRYKSTTSVSEEDVSSRYSRTDRSGFPRYNRDANVSGTLVSSSTLEKKIEDLEKEVVRERQENLRLVRLMQDKEEMIGKLKEEIDLLNRDLDDIEDENEQLKQENKTLLKVVGQLTR [E68D]

Variants of: B2
Conditions: with pawr_human PAWR, Q96IZ0

Row | effect of a mutation on the interaction | Variant
3 | disrupting interaction | MGQTALARGSSSTPTSQALYSDFSPPEGLEELLSAPPPDLVAQRHHGWNPKDCSENIDVKEGGLCFERRPVAQSTDGVRGKRGYSRGLHAWEISWPLEQRGTHAVVGVATALAPLQADHYAALLGAAAESWGWDIGRGKLYHQSKGLEAPQYPAGPQGEQLVVPERLLVVLDMEEGTLGYSIGGTYLGPAFRGLKGRTLYPSVSAVWGQCQVRIRYMGERRVEEPQSLLHLSRLCVRHALGDTRLGQISTLPLPPAMKRYLLYK [S126A;N127A;S128A]
4 | disrupting interaction | MGQTALARGSSSTPTSQALYSDFSPPEGLEELLSAPPPDLVAQRHHGWNPKDCSENIDVKEGGLCFERRPVAQSTDGVRGKRGYSRGLHAWEISWPLEQRGTHAVVGVATALAPLQADHYAAAAASNSESWGWDIGRGKLYHQSKGLEAPQYPAGPQGEQLVVPERLLVVLDMEEGTLGYSIGGTYLGPAFRGLKGRTLYPSVSAVWGQCQVRIRYMGERRVEEPQSLLHLSRLCVRHALGDTRLGQISTLPLPPAMKRYLLYK [L123A;L124A;G125A]
5 | disrupting interaction | MGQTALARGSSSTPTSQALYSDFSPPEGLEELLSAPPPDLVAQRHHGWNPKDCSENIDVKEGGLCFERRPVAQSTDGVRGKRGYSRGLHAWEISWPLEQRGTHAVVGVATALAPLQADHYAALLGSNSESWGWDIGRGKLYHQSKGLEAPQYPAGPQGEQLVVPERLLVVLDMEEGTLGYSIGGTYLGPAFRGLKGRTLYPSVSAAWGQCQVRIRYMGERRVEEPQSLLHLSRLCVRHALGDTRLGQISTLPLPPAMKRYLLYK [V206A]
6 | disrupting interaction | MGQTALARGSSSTPTSQALYSDFSPPEGLEELLSAPPPDLVAQRHHGWNPKDCSENIDVKEGGLCFERRPVAQSTDGVRGKRGYSRGLHAWEISWPLEQRGTHAVVGVATALAPLQADHAAALLGSNSESWGWDIGRGKLYHQSKGLEAPQYPAGPQGEQLVVPERLLVVLDMEEGTLGYSIGGTYLGPAFRGLKGRTLYPSVSAVWGQCQVRIRYMGERRVEEPQSLLHLSRLCVRHALGDTRLGQISTLPLPPAMKRYLLYK [Y120A]

Variants of: B3
Conditions: with spsb1_mouse Spsb1, Q9D5L7

Row | effect of a mutation on the interaction | Variant
7 | disrupting interaction | MATGGYRTSSGLGGSTTDFLEEWKAKREKMRAKQNPPGPAPPGGGSSDAAGKPPAGALGTPAAAAANELNANLPGGAPAAPAVPGPGGVNCAVGSAMLTRAAPGPRRSEDEPPAASASAAPPPQRDEEEPDGVPEKGKSSGPSARKGKGQIEKRKLREKRRSTGVVNIPAAECLDEYEDDEAGQKERKREDAITQQNTIQNEAVNLLDPGSSYLLQEPPRTVSGRYKSTTSVSEEDVSSRYSRTDRSGFPRYNRDANVSGTLVSSSTLEKKIEDLEKEVVRERQENLRLVRLMQDKEEMIGKLKEEIDLLNRDLDDIEDENEQLKQENKTLLKVVGQLTR [N71A]
8 | disrupting interaction | MATGGYRTSSGLGGSTTDFLEEWKAKREKMRAKQNPPGPAPPGGGSSDAAGKPPAGALGTPAAAAANELANNLPGGAPAAPAVPGPGGVNCAVGSAMLTRAAPGPRRSEDEPPAASASAAPPPQRDEEEPDGVPEKGKSSGPSARKGKGQIEKRKLREKRRSTGVVNIPAAECLDEYEDDEAGQKERKREDAITQQNTIQNEAVNLLDPGSSYLLQEPPRTVSGRYKSTTSVSEEDVSSRYSRTDRSGFPRYNRDANVSGTLVSSSTLEKKIEDLEKEVVRERQENLRLVRLMQDKEEMIGKLKEEIDLLNRDLDDIEDENEQLKQENKTLLKVVGQLTR [N70A]
9 | increasing interaction | MATGGYRTSSGLGGSTTDFLEEWKAKREKMRAKQNPPGPAPPGGGSSDAAGKPPAGALGTPAAAAANDINNNLPGGAPAAPAVPGPGGVNCAVGSAMLTRAAPGPRRSEDEPPAASASAAPPPQRDEEEPDGVPEKGKSSGPSARKGKGQIEKRKLREKRRSTGVVNIPAAECLDEYEDDEAGQKERKREDAITQQNTIQNEAVNLLDPGSSYLLQEPPRTVSGRYKSTTSVSEEDVSSRYSRTDRSGFPRYNRDANVSGTLVSSSTLEKKIEDLEKEVVRERQENLRLVRLMQDKEEMIGKLKEEIDLLNRDLDDIEDENEQLKQENKTLLKVVGQLTR [E68D;L69I]
